The text below walks through data of US20120178909A1 (MorphoSys, published 2012).

B1: AbD05446 (Fab, V domains shown)
VH: QVQLVESGGGLVQPGGSLRLSCAASGFTFNSNSMSWVRQAPGKGLEWVSGISGIGSNTNYADSVKGRFTISRDNSKNTLYLQMNSLRAEDTAVYYCARVHYYSGVVFDFWGQGTLVTVSS
VL: DIELTQPPSVSVAPGQTARISCSGDNLRTQYASWYQQKPGQAPVLVIYNKNKRPSGIPERFSGSNSGNTATLTISGTQAEDEADYYCAAWDSGSIVFGGGTKLTVLG
B2: AbD05322 (Fab, V domains shown)
VH: QVQLVESGGGLVQPGGSLRLSCAASGFTFSNFWMSWVRQAPGKGLEWVSAISYSSSSTYFADSVKGRFTISRDNSKNTLYLQMNSLRAEDTAVYYCARAYRSYFDIWGQGTLVTVSS
VL: DIQMTQSPSSLSASVGDRVTITCRASQSISNWLNWYQQKPGKAPKLLIYNASILQSGVPSRFSGSGSGTDFTLTISSLQPEDFAVYYCQQNYGIPITFGQGTKVEIKR
B3: AbD05444 (Fab, V domains shown)
VH: QVQLVESGGGLVQPGGSLRLSCAASGFTFSSYWLNWVRQAPGKGLEWVSGISSSSSSTFYADGVKGRFTISRDNSKNTLYLQMNSLRAEDTAVYYCARHSYFDYWGQGTLVTVSS
VL: DIQMTQSPSSLSASVGDRVTITCRASQSIVTYLNWYQQKPGKAPKLLIYAASNLQSGVPSRFSGSGSGTDFTLTISSLQPEDFAVYYCQQLYSHPPTFGQGTKVEIKR
B4: AbD05445 (Fab, V domains shown)
VH: QVQLVESGGGLVQPGGSLRLSCAASGFTFSNNAMTWVRQAPGKGLEWVSLISYSGSSTYYADSVKGRFTISRDNSKNTLYLQMNSLRAEDTAVYYCARLGGNPLGPFDHWGQGTLVTVSS
VL: DIALTQPASVSGAPGQRVTISCTGTSSDIGGYSYVSWYQQHPGKAPKLMIYGVTKRPSGVSNRFSGSKSGNTASLTISGLQAEDEADYYCQSWATHPIRVFGGGTKLTVLG
B5: AbD05320 (Fab, V domains shown)
VH: QVQLVQSGAEVKKPGESLKISCKGSGYSFTNYWISWVRQAPGKGLEWMGIIDPGDSDTNYSPSFQGQVTISADKSISTAYLQWSSLKASDTAMYYCARVNYYNFDYWGQGTLVTVSS
VL: DIVLTQSPATLSLSPGERATLSCRASQSVTSNLAWYQQKPGQAPRLLIYGNVSRRATGVPARFSGSGSGTDFTLTISSLEPEDFATYYCQQYGDYPATFGQGTKVEIKR
B6: AbD05321 (Fab, V domains shown)
VH: QVQLVQSGAEVKKPGSSVKVSCKASGGTFSSHAISWVRQAPGQGLEWMGGIIPIFGMANYAQKFQGRVTITADESTSTAYMELSSLRSEDTAVYYCARYYWKPVLFDFDVWGQGTLVTVSS
VL: DIALTQPASVSGSPGQSITISCTGTSSDIGGNNYVSWYQQHPGKAPKVMIYEVSKRPSGVSNRFSGSKSGNTASLTISGLQAEDEADYYCSSYTMTIFVFGGGTKLTVLG

The target in the test is T1, DV2 NS2B-NS3pro construct, wild type (strain 16681) (WNV strain of the DV serotype 2 (DV2; …, UniProt P29990 1393-1440; P29990 1476-1687).
T1 construct: range 1393-1440;range 1476-1687
The test can be described thus: ELISA on coated construct. On the technique in general: An ELISA detects its analyte on a solid surface through an enzyme-linked reagent.
For B1, the binding result is on record as “no binding (tested: 2 µg/ml antibody)”.

B2: the binding result is listed as “no binding (tested: 2 µg/ml antibody)”. Take B3: the binding result was “no binding (tested: 2 µg/ml antibody)”.

Take B4: the binding result was “no binding (tested: 2 µg/ml antibody)”. For the molecule B5, the binding result is given as “no binding (tested: 2 µg/ml antibody)”. As to B6, the binding result was “no binding (tested: 2 µg/ml antibody)”.
